Source: the RNAGym collection of RNA variant scans (doi:10.1073/pnas.2313332121)

B1: TPR t1 (parent)
chain: GACCAAUCUGCCCUCAGAGCUCGAGAACAUCUUCGGAUGCAGAGGAGGCAGGCUUCGGUGGCGCGAUAGCGCCAACGUCCUCAACCUCCAAUGCAUCCCACCACAUGAUGAUGCCUGAAGAGCCUUGGUUUUUUG

Variants of: B1
Assay: polymerase ribozyme fitness, log enrichment relative to wild type (log ratio); higher = more active; in vitro selection for triplet polymerase activity
How it was run: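 Only genotypes with ≥10 input reads and ≥1 read per output were kept after Illumina sequencing of input and output libraries. These libraries were PCR-built, transcribed mutants of each subunit of a heterodimeric triplet polymerase ribozyme, each put through one triplicate in vitro selection round with frozen incubation at −7 °C, gel excision of extended constructs, streptavidin-bead capture and RT-PCR. Fitness is a logarithmic ratio of genotype enrichment to wild-type enrichment, from inverse-variance-weighted replicate averages, with the logarithm in base 2.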

First: C8G A46U C104A U106C U116C
Second: U7G G107A
The “polymerase ribozyme fitness (log ratio)” value of the first is higher: -3.35 for the first, -4.15 for the second.

Going from C8A C12G G61C C123A to U7G C12G G17U U21G G69U C86U C124A, the “polymerase ribozyme fitness (log ratio)” value falls from -0.379 to -6.15.

First: C8A G61A
Second: C8G C11A G51A G71U U106G G113U U125G
The “polymerase ribozyme fitness (log ratio)” value of the first is higher: -0.475 for the first, -6.93 for the second.

Compared with C8G A46C U81A C88U G113A, C8G C72A C102A is higher in “polymerase ribozyme fitness (log ratio)” value: -1.64 for the first, -1.22 for the second.

First: C8G C114U C123A
Second: C8G G10C U55G A91C
The “polymerase ribozyme fitness (log ratio)” value of the first is higher: -0.55 for the first, -1.21 for the second.

First: U7G C102A
Second: C8G G17U U59G C115G A118G
The “polymerase ribozyme fitness (log ratio)” value of the first is lower: -0.8 for the first, 0.49 for the second.

Going from C8A C20A C79A to C8G A43U C53U U106A, the “polymerase ribozyme fitness (log ratio)” value rises from -3.7 to -1.57.

Going from C8G A91U A95C to C8A C13U U38A C97A, the “polymerase ribozyme fitness (log ratio)” value falls from -1.32 to -6.04.

Going from C8A G19A U87C A91C G113C G127C to C8A A18U G45C U109A, the “polymerase ribozyme fitness (log ratio)” value falls from -2.18 to -5.8.

Compared with U7G A46U G61C U112A, C8G A37U C49U U54G U133G is higher in “polymerase ribozyme fitness (log ratio)” value: -1.98 for the first, -1.23 for the second.

First: C8A C123U
Second: C8A A37G C62G C72G U112G G127A
The “polymerase ribozyme fitness (log ratio)” value of the first is higher: 1.44 for the first, -5.98 for the second.

First: U7G C70G C102U U106A
Second: C8G G48A G63C C72U C88A
The “polymerase ribozyme fitness (log ratio)” value of the first is lower: -4.46 for the first, -4.05 for the second.

Compared with C8A C76U U87A U112A A121C U133G, C8A C70G is lower in “polymerase ribozyme fitness (log ratio)” value: 0.984 for the first, -1.76 for the second.

Going from U7G C79U C124G to C8G A16C U87A, the “polymerase ribozyme fitness (log ratio)” value falls from 2.41 to -0.437.

Going from C8A G65C C115A C123G to C8G G48U C72A, the “polymerase ribozyme fitness (log ratio)” value rises from -4.88 to 0.0646.

First: C8A U38A A46C
Second: C8A U59G C114U
The “polymerase ribozyme fitness (log ratio)” value of the first is lower: -1.09 for the first, -0.559 for the second.

First: U7G G61U C70G
Second: C8A G47C U133G
The “polymerase ribozyme fitness (log ratio)” value of the first is lower: -5.24 for the first, -1.25 for the second.

First: U7G G45C G52C C79U C102A
Second: C8A C64G A111G A121C U129A
The “polymerase ribozyme fitness (log ratio)” value of the first is higher: -3.37 for the first, -6.98 for the second.

Going from C8G G63U G77C U129C to C8A A43C G57A C72G U96C A103G A108G U109G, the “polymerase ribozyme fitness (log ratio)” value falls from -2.81 to -5.5.

Compared with C8G A43C G45A A50G G113U G120C, U7C C73A is higher in “polymerase ribozyme fitness (log ratio)” value: -2.24 for the first, -0.286 for the second.

Compared with C8A A18G U109C C115A, C8G G42A is higher in “polymerase ribozyme fitness (log ratio)” value: -5.42 for the first, -0.64 for the second.

Compared with C8A G63C U78C U81A C101A U109G, C8G G36A G44A is higher in “polymerase ribozyme fitness (log ratio)” value: -5.76 for the first, -1.23 for the second.

Going from C8A C40U A103C to U7C G48U A50G G61A C89U, the “polymerase ribozyme fitness (log ratio)” value rises from -3.75 to -1.71.

C8G C13G C98U and C8G C82U C97U G127C are within 0.2 log units of each other in “polymerase ribozyme fitness (log ratio)” value: -0.112 for the first, -0.232 for the second.

First: U7C G71A G127U U133G
Second: U7G G65U G120A
The “polymerase ribozyme fitness (log ratio)” value of the first is higher: -1.83 for the first, -4.13 for the second.

U7C G10A C11G A91U A111G and U7G C79U C80U are within 0.2 log units of each other in “polymerase ribozyme fitness (log ratio)” value: -1.99 for the first, -1.81 for the second.

Going from C8A C20A U126A to U7G C64U C97U G107A U112A, the “polymerase ribozyme fitness (log ratio)” value falls from -3.84 to -5.51.

Compared with U7C G93A U132C, C8G C49A U96G is higher in “polymerase ribozyme fitness (log ratio)” value: -0.396 for the first, 0.183 for the second.

First: U7G G17U G61U
Second: C8A U32A A90G
The “polymerase ribozyme fitness (log ratio)” value of the first is higher: -0.326 for the first, -4.24 for the second.

Going from U7C G19U U54C A66C to C8G A18U G44U G47A C102A G120A A121C C124U, the “polymerase ribozyme fitness (log ratio)” value falls from -5.92 to -6.31.

First: C8G A121G
Second: C8A C72U
The “polymerase ribozyme fitness (log ratio)” value of the first is higher: 1.62 for the first, 0.071 for the second.

First: U7C U14G A37C
Second: U7G U14G C34G
The “polymerase ribozyme fitness (log ratio)” value of the first is higher: -1.12 for the first, -5.56 for the second.

Compared with C8G G19U U125A, U7C G19U U54C C72G is lower in “polymerase ribozyme fitness (log ratio)” value: -2.65 for the first, -3.1 for the second.

Compared with U7G U109C, C8G C88A A111C is higher in “polymerase ribozyme fitness (log ratio)” value: -3.87 for the first, 0.461 for the second.

First: C8G A16G C56G C72A A100C
Second: U7G G36C
The “polymerase ribozyme fitness (log ratio)” value of the first is lower: -1.46 for the first, 0.162 for the second.

Compared with C8G C15G, U7C G42C C72A C88U C115U U133A is higher in “polymerase ribozyme fitness (log ratio)” value: -1.24 for the first, -0.456 for the second.

Going from U7G G10U U78C C101A G122A to C8A U9G C94G, the “polymerase ribozyme fitness (log ratio)” value rises from -1.81 to -0.653.

Compared with C8G C11U G63U C124A, C8G A27U A29U G69U C101A C114U is lower in “polymerase ribozyme fitness (log ratio)” value: 1.09 for the first, -5.18 for the second.

First: C8G G60A C104U
Second: U7C U14A A46U
The “polymerase ribozyme fitness (log ratio)” value of the first is higher: -0.296 for the first, -2.65 for the second.

First: C8G C20G C40G U96C U112A
Second: U7G A37C A95C
The “polymerase ribozyme fitness (log ratio)” value of the first is lower: -6.13 for the first, 0.483 for the second.

First: C8G C20A C82U A100C U112C
Second: C8G A68G
The “polymerase ribozyme fitness (log ratio)” value of the first is lower: -3.16 for the first, -2.09 for the second.

First: C8A G35A C89U G117C
Second: U7C C62U A111U U133A
The “polymerase ribozyme fitness (log ratio)” value of the first is lower: -6.27 for the first, -2.88 for the second.
